Results published in patent US20160017348A1.

Target: unmodified H3 peptide (UniProt P59226)
Experiment: ITC; FIG. 3A

SHH1 SAWADEE domain (residues 125-258), sequence (Q9XI47 125-258): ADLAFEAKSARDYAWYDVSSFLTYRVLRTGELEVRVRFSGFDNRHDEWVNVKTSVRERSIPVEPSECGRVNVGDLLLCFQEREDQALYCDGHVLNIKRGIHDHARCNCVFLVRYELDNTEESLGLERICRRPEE

Kd: 34.8 µM
Substance: SHH1 SAWADEE domain (residues 125-258) (from UniProt Q9XI47 125-258)
